Results published in patent publication US20200199244A1 (published 2020).

Tests used:
[1] = biological target: T1, human CD40 (BMS, CY24FEB06-01) (human, UniProt P25942 21-193); assay: ELISA RBA, competition with IZ-CD40L;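 also: Neutravidin-coated 384-well plate, dAb–human CD40 complex bound for 2 h at room temperature, absorbance read at 450 nm after HCl stop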
T1 construct: Soluble reagent of the bead and ELISA RBA; It is detected with an anti-human IgG (Fc) mAb, so it may be a CD40-Ig fusion
T1 sequence (P25942 21-193 limits assumed): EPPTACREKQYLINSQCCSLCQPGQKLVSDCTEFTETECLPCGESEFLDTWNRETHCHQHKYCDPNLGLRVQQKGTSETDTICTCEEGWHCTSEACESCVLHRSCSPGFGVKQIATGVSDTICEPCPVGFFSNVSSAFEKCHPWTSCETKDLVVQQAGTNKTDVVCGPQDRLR
Description: (§1) Clear walled High Bind, 384-well plates (Corning, UK) were coated with 25 μl of 1 μg/ml Neutravidin in 0.2 M carbonate-bicarbonate buffer, pH 9.4 overnight at 4° C. The following day, assay plates were washed with 0.1% (v/v) Tween PBS buffer, blocked with 1% (w/v) BSA in PBS for 1 hour at room temperature and washed again. […] Following washing of the assay plate, the dAb:human CD40 complex was incubated in the assay plate at room temperature for 2 hours with gentle agitation. […] Absorbance signal was measured using a SpectraMax® M5e plate reader (Molecular Devices) at 450 nm following neutralization with 1M HCl solution.

[2] = biological target: T2, human CD40 (BMS, CY24FEB06-01) (human, UniProt P25942 21-193); assay: ELISA RBA, competition with IZ-CD40L for soluble human CD40;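 also: Neutravidin-coated 384-well plates, dAb–human CD40 complex incubated 2 h at room temperature, read-out as absorbance at 450 nm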
T2 construct: Soluble human CD40 reagent of the ELISA RBA
T2 sequence (P25942 21-193 limits assumed): as above
Description: as §1

EC50 [1] [nM] | EC50 [2] [nM] | Binder
23 |  | BMS3h-217-1 (other, dAb, single VK) VL: NIQMTQSPSSLSASVGDRVTITCRASHFIGTLLTWYQHKPGKAPKLLITYGSLLQSGVPSRFSGSGSGTDFTLTISSLQPEDFATYYCGQGVLWPATFGQGTKVEIKR
53 |  | BMS3h-217-9 (other, dAb, single VK) VL: DIQMTQSPSSLSASVGDRVTITCRASHFIGTLLSWYQHKPGKAPKLLITYGSMLQSGVPSRFSGSGSGTDFTLTISSLQPEDFATYYCGQGVLWPATFGQGTKVEIKR
16 |  | BMS3h-217-23 (other, dAb, single VK) VL: DIQMTQSPSSLSASVGDRVTITCRASHFIGSLLSWYQVKPGKAPKLLITYGSLLQSGVPSRFSGSGSGTDFTLTISSLQPEDFATYYCGQGVLWPATFGQGTTVEIKR
32 |  | BMS3h-217-3 (other, dAb, single VK) VL: DIQMTQSPSSLTASVGDRVTITCRASHFIGTLLSWYQQKPGKAPKLLVTYGSLLQSGVPSRFSGSGSGTDFTLTISNLQPEDFATYYCGQGVLWPPTFGQGTKVENIR
39 |  | BMS3h-217-7 (other, dAb, single VK) VL: DIQMTQSPSSLSASVGDRVTITCRASHFIGSLLSWYQHKPGKAPKLLITYGSLLQSGVPSRFSGSGSGTDFTLTISSLQPEDFATYYCGQGVLWPATFGQGTKVEIKR
9 |  | BMS3h-217-16 (other, dAb, single VK) VL: DIQMTQSPSSLSASVGDRVTITCRASHFIGTLLSWYQQKPRKAPKLLITYGSLLQSGVPSRFSGSGSGTDFTLTISSLQPEDFATYYCGQGVLWPPTFGQGTKVEIKR
60 |  | BMS3h-217-17 (other, dAb, single VK) VL: DIQIIQSPSSLSASVGDRVTITCRASHFIGTLLSWYQQKPGKAPKLLITYGSLLQSGVPSRFSGSGSGTDFTLTISSLQPEDFATYYCGQGVLWPPTFGQGTKVEIKR
6 |  | BMS3h-217-8 (other, dAb, single VK) VL: DIQMTQSPSSLSASVGDRVTITCRASHFIGTLLSWYQHKPGKAPKLLITYGSLLQSGVPSRFSGSGSGTDFTLTISSLQPEDFATYYCGQGVLWPATFGQGTKVEIKR
78 |  | BMS3h-217-2 (other, dAb, single VK) VL: DIQMTQSPSSLSASVGDRVTITCRASHFIGTLLSWYQQKPRKAPKLLITYGSLLQSGVPSRFSGSGSGTDFTLTISSLHPEDFATYYCGQGVLWPPTFGQGTKVEIKR
21 |  | BMS3h-217-15 (other, dAb, single VK) VL: DIQMTQSPSSLYASVGDRVTITCRVSHFIGTLLSWYQQKPGKAPKLLITYGSLLQSGVPSRFSGSGSGTDFTLSISSLQPEDFATYYCGQGVLWPPTFGQGTKVEIKQ
5.5 |  | BMS3h-56-7 (other, dAb, single VH) VH: EVQLLESGGGLVQPGGSLRLSCAASGFTFRDYEMWWVRQAPGKGLERVSAINPQGTRTYYADSVKGRFTISRDNSKNTLYLQMNSLRAEDTSVYHCAKPPFIFGDWGPGTLVTVSS
7 |  | BMS3h-56-16 (other, dAb, single VH) VH: EVQLLESGGGLVQPGGSLRLSCAASGFTFRDYEMWWVRQAPGKGLERVSAINPQGTRTYYADSVMGRFTISRDNSKNTLYLQMNSLRAEDTAVYYCAKLPFTFEDWGQGTLVTVSS
66 |  | BMS3h-56-17 (other, dAb, single VH) VH: EVQLLESGGGLVQPGGSLRLSCAASGFSFRDYEMWWYRQAPGKGLERVSAINPQGTRTYYADSVKGRFTISRDNSKNTLYLQMNSLRAEDTAVYYCAKLPFTFEDWGQGTLVTVSS
6.2 |  | BMS3h-56-8 (other, dAb, single VH) VH: EVQLLESGGGLVQPGGSRRLSCAASGFTFRDYEMWWVRQAPGKGLERVSAINPQGTRTYYADSVKGRFTISRDNSKNTLYLQMNSLRAEDTAVYYCAKLPFTFEDWGQGTLVTVSS
 | 180 | BMS3h-193-2506 (other, domain antibody (dAb): single human V kappa domain) VL: DIQMTQSPSSLSASVGDRVTITCRASQQIGRRLNWYQQKPGKAPRLLIYLATRLQSGVPSRFSGSGSGTDFTLTISSLQPEDFATYYCHQYESPPLTFGQGTKVEIKR
 | 160 | BMS3h-193-2507 (other, domain antibody (dAb): single human V kappa domain) VL: DIQMTQSPSSLSASVGDRVTITCRASQPIARRLNWYQQKPGKAPRLLIYLATRLQSGVPSRFSGSGSGTDFTLTISSLQPEDFATYYCHQYESPPLTFGQGTKVEIKR
 | 100 | BMS3h-193-2516 (other, domain antibody (dAb): single human V kappa domain) VL: DIQMTQSPSSLSASVGDRVTITCRASQTIERRLNWYQQKPGKAPRLLIYLSSKLQSGVPSRFSGSGSGTDFTLTISSLQPEDFATYYCHQYESPPLTFGQGTKVEIKR
 | 3000 | BMS3h-193-2503 (other, domain antibody (dAb): single human V kappa domain) VL: DIQMTQSPSSLSASVGDRVTITCRASSTIGRRLNWYQQKPGKAPRLLIYLATRLQSGVPSRFSGSGSGTDFTLTISSLQPEDFATYYCHQYESPPLTFGQGTKVEIKR

EC50 [1] [nM] | EC50 [2] [nM] | Binder
 | 600 | BMS3h-193-2512 (other, domain antibody (dAb): single human V kappa domain) VL: DIQMTQSPSSLSASVGDRVTITCRASEVIGRRLNWYQQKPGKAPRLLIYLATRLQSGVPSRFSGSGSGTDFTLTISSLQPEDFATYYCHQYESPPLTFGQGTKVEIKR
 | 270 | BMS3h-193-2511 (other, domain antibody (dAb): single human V kappa domain) VL: DIQMTQSPSSLSASVGDRVTITCRASQNIGTRLNWYQQKPGKAPRLLIYLATRLQSGVPSRFSGSGSGTDFTLTISSLQPEDFATYYCHQYESPPLTFGQGTKVEIKR
 | 525 | BMS3h-193-2514 (other, domain antibody (dAb): single human V kappa domain) VL: DIQMTQSPSSLSASVGDRVTITCRASTSIARRLNWYQQKPGKAPRLLIYLATRLQSGVPSRFSGSGSGTDFTLTISSLQPEDFATYYCHQYESPPLTFGQGTKVEIKR
 | 170 | BMS3h-193-2510 (other, domain antibody (dAb): single human V kappa domain) VL: DIQMTQSPSSLSASVGDRVTITCRASQSIGRRLNWYQQKPGKAPRLLIYLATRLQSGVPSRFSGSGSGTDFTLTISSLQPEDFATYYCHQYESPPLTFGQGTKVEIKR
 | 170 | BMS3h-193-2502 (other, domain antibody (dAb): single human V kappa domain) VL: DIQMTQSPSSLSASVGDRVTITCRASFPIDRRLNWYQQKPGKAPRLLIYLATRLQSGVPSRFSGSGSGTDFTLTISSLQPEDFATYYCHQYESPPLTFGQGTKVEIKR
 | 140 | BMS3h-193-2504 (other, domain antibody (dAb): single human V kappa domain) VL: DIQMTQSPSSLSASVGDRVTITCRASSQIGRRLNWYQQKPGKAPRLLIYLATRLQSGVPSRFSGSGSGTDFTLTISSLQPEDFATYYCHQYESPPLTFGQGTKVEIKR
 | 130 | BMS3h-193-2513 (other, domain antibody (dAb): single human V kappa domain) VL: DIQMTQSPSSLSASVGDRVTITCRASEAIGRRLNWYQQKPGKAPRLLIYLATRLQSGVPSRFSGSGSGTDFTLTISSLQPEDFATYYCHQYESPPLTFGQGTKVEIKR
 | 100 | BMS3h-193-2515 (other, domain antibody (dAb): single human V kappa domain) VL: DIQMTQSPSSLSASVGDRVTITCRASLNIGRRLNWYQQKPGKAPRLLIYLATRLQSGVPSRFSGSGSGTDFTLTISSLQPEDFATYYCHQYESPPLTFGQGTKVEIKR
 | 114 | BMS3h-193-2501 (other, domain antibody (dAb): single human V kappa domain) VL: DIQMTQSPSSLSASVGDRVTITCRASQTIERRLNWYQQKPGKAPRLLIYLATRLQSGVPSRFSGSGSGTDFTLTISSLQPEDFATYYCHQFEHPPLTFGQGTKVEIKR
 | 500 | BMS3h-193-2505 (other, domain antibody (dAb): single human V kappa domain) VL: DIQMTQSPSSLSASVGDRVTITCRASERIGRRLNWYQQKPGKAPRLLIYLATRLQSGVPSRFSGSGSGTDFTLTISSLQPEDFATYYCHQYESPPLTFGQGTKVEIKR
 | 6.3 | BMS3h-38-224 (other, domain antibody (dAb): single human VH domain) VH: EVQLLASGGGLVQPGGSLRLSCAASGFTFEEEEMIWVRQAPGKGLEWVSAISGSGGSTYYADSVKGRFTISRDNSKNTLYLQMNSLRAEDTAVYYCGKEPFPYDYWGQGTLVTVSS
 | 18.1 | BMS3h-38-226 (other, domain antibody (dAb): single human VH domain) VH: EVQLLASGGGLVQPGGSLRLSCAASGFTFEEEEMIWVRQAPGKGLEWVSAISGSGGSTYYADSVKGRFTISRDNSKNTLYLQMNSLRAEDTAVYYCGKEPLYYDYWGQGTLVTVSS
 | 8.8 | BMS3h-38-225 (other, domain antibody (dAb): single human VH domain) VH: EVQLLASGGGLVQPGGSLRLSCAASGFTFEEEEMIWVRQAPGKGLEWVSAISGSGGGTYYADSVKGRFTISRDNSKNTLYLQMNSLRAEDTAVYYCGKEPFRYDYWGQGTLVTVSS
 | 2 | BMS3h-38-237 (other, domain antibody (dAb): single human VH domain) VH: EVQLLASGGGLVQPGGSLRLSCAASGFTFEEEEMIWVRQAPGKGLEWVSAISRGGWSTYYADSVKGRFTISRDNSKNTLYLQMNSLRAEDTAVYYCGKEPFRYDYWGQGTLVTVSS
 | 4 | BMS3h-38-228 (other, domain antibody (dAb): single human VH domain) VH: EVQLLASGGGLVQPGGSLRLSCAASGFTFEEEEMIWVRQAPGKGLEWVSAISRNGFSTYYADSVKGRFTISRDNSKNTLYLQMNSLRAEDTAVYYCGKEPFRYDYWGQGTLVTVSS
 | 4.4 | BMS3h-38-231 (other, domain antibody (dAb): single human VH domain) VH: EVQLLASGGGLVQPGGSLRLSCAASGFPFEEEEMIWVRQAPGKGLEWVSAISRQGWSTYYADSVKGRFTISRDNSKNTLYLQMNSLRAEDTAVYYCGKEPFRYDYWGQGTLVTVSS
 | 1.5 | BMS3h-38-235 (other, domain antibody (dAb): single human VH domain) VH: EVQLLASGGGLVQPGGSLRLSCAASGFTFEEEEMIWVRQAPGKGLEWVSAISRNGYSTYYADSVKGRFTISRDNSKNTLYLQMNSLRAEDTAVYYCGKEPFRYDYWGQGTLVTVSS
